System: MS2 coat protein
Assay: apparent KD of MS2 coat protein; designed switch direction (-1 OFF switch, 1 ON switch): -1; higher = weaker reporter binding
Summary of the method: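 An oligonucleotide input, 200 uM small-molecule ligand, or no input was present during titration of SNAP-549-labelled MS2 coat protein, which was doubled from 0.7 or 1.5 nM to 3 µM. Designed RNA switches had been transcribed on Illumina chips by stalled E. coli RNA polymerase. Apparent KD per design is the median over clusters of curves fitted to normalised cluster fluorescence.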

[1] = input ligand: microRNA oligo, concentration not stated
[2] = Eterna round: R95, input ligand: FMN 200 uM
[3] = Eterna round: R95, input ligand: microRNA oligo, concentration not stated
[4] = Eterna round: R95, input ligand: none

Row | Sequence | apparent KD of MS2 coat protein (input ligand: FMN 200 uM) [nM] | apparent KD of MS2 coat protein [1] [nM] | apparent KD of MS2 coat protein (input ligand: none) [nM] | apparent KD of MS2 coat protein [3] [nM] | also measured
1 | GCGCAAACGCCAAAAGGCGAAACAACAUGAGGAUCACCCAUGUAGGAUAUCGAUUGCUUUGCAGUCGAGAAGGACAAAAUGCGC [JL ENG3 3.80 Mod 6] (Eterna round: R96, puzzle: Exclusion NG 3) | 11.6 | 10.6 | 15.7 | – | –
2 | ACAAGCUUUUUGUUCGUCUUAUAAAAUCCUAAGAGGAAAACAUGAGGAUCACCCAUGUAACAAAGACGGACUCAUGU [Sesor Array 12 - Jieux - Sensor v3, turn-off variant 2] (puzzle: Sensor v3, turn-off variant 2) | – | – | – | 125 | apparent KD of MS2 coat protein [2]: 13.4 nM; apparent KD of MS2 coat protein [4]: 10.8 nM
3 | CUAAAUCAUGUAGGAUAUGCGUGGCAAAGCUAUGCAGAAGGACAUGAGGAUCACCCAUGUCUUUCCGUCUGAGUACAGACGGGA [Mat - Exclusion NG 1 - Mod of JL - D46] (Eterna round: R96, puzzle: Exclusion NG 1) | 166 | 21.7 | 26.6 | – | –
4 | AAUUCGGCAGGAUAUACAUGAGGAUCACCCAUGUAAAUUUUUCGUUUAACUUGAAUGUGUAGAAGGGCCAUUAA [Ex3 #63] (Eterna round: R97, puzzle: Exclusion 3) | 27.6 | – | 28.8 | – | –
5 | GCGCCAUCGUGAGAUGGCGUAACUACAUGAGGAUCACCCAUGUAGGAUAUCGAUUGCUUUGCAGUCGAGAAGGGCAAGGGAUUU [JL ENG3 3.88] (Eterna round: R96, puzzle: Exclusion NG 3) | 25.8 | 14.7 | 20.4 | – | –
6 | AUCAUGUCAGGAUAUAUGACAUGGCUCUUCGGAGCAAGAUCAUAGAAGGGACAUGAGGAUCACCCAUGUAGAUC [Ex4-3: 23] (puzzle: Exclusion 4) | – | – | – | 195 | apparent KD of MS2 coat protein [2]: 41.9 nM; apparent KD of MS2 coat protein [4]: 188 nM
7 | CUCGUGUGAGGAUAUCUAUUCCACGGACGGGAGUCUUGAAGAGAGAAGGCACAUGAGGAUCACCCAUGUAAUAA [Latequ] (puzzle: Exclusion 4) | – | – | – | 107 | –
8 | UUUAAUUUUUUUUUUUUACAAGCUUUUUGCUCGUCUUAUACAUGAGGAUCACCCAUGUGAAUGGAGGAUAAAUUAUC [JMF 30] (puzzle: Sensor v3, turn-off variant 2) | – | – | – | 33.1 | apparent KD of MS2 coat protein [2]: 29.5 nM; apparent KD of MS2 coat protein [4]: 26 nM
9 | CCAUUCAGAGGAUAUGCGAAUAAAUAAAACUUUUUUUUUUAACAUGAGGAUCACCCAUGUAGAAGGCUGUAACC [Ex2 #44] (Eterna round: R97, puzzle: Exclusion 2) | 31.4 | – | 27.6 | – | –
10 | CCAGCGUAUGUGAGGAUAUGCUGGUCCUUGGAUCAGCAGAAGGCACAUGAGGAUCACCCAUGUGAGAACGUUGG [JL bmx4 3.38] (puzzle: Brourd's mod of Exclusion 4) | – | – | – | 24.6 | –
11 | GCGGACUCGAUCGUGAGAUCGGAGACAUGAGGAUCACCCAUGUAGGAUAUCGAUUGCUUUGCAGUCGAGAAGGGCGUGGUCCGC [JL denovo 17] (Eterna round: R96, puzzle: Exclusion NG 3) | 152 | 98.1 | 157 | – | –
12 | UCUUAGUCAGGAUAUACAUGAGGAUCACCCAUGUAAAAUUUUAAUUUAAUUUUAAGGUGUAGAAGGGACCACCU [Ex3 #18] (Eterna round: R97, puzzle: Exclusion 3) | 19.2 | – | 23.4 | – | –
13 | UUUUACCAAGGAUAUACAUUUUUUUUAUUAUUUUCAUUAUAACAUGAGGAUCACCCAUGUAGAAGGUGGAUUUU [My Design] (puzzle: Exclusion 2) | – | – | – | 59.6 | –
14 | ACAUCACAGCUAGGAUAUAGAUGACAUGAGGAUCACCCAUGUUGUCCCAUGUUGACGAAAACCGACUAGAAGGAGCUACAGAUG [Ex NG2 #5] (Eterna round: R96, puzzle: Exclusion NG 2) | 59.3 | 52.6 | 50.1 | – | –
15 | AAUAACAGAGGAUAUACUGUUUUAUGUAUUUAUUAUUUUAAACAUGAGGAUCACCCAUGUAGAAGGCUGAAUGA [JMF 55] (puzzle: Exclusion 2) | – | – | – | 20.7 | –
16 | CGCGUAGGAGGAUAUAUGGCAUACAACAUGAGGAUCACCCAUGUAGUCGCACGUUGGGAUAUAGAAGGCCUGCGAA [Eternabot (L1) Solution 87] (Eterna round: R97, puzzle: Exclusion 5) | 18.3 | – | 20 | – | –
17 | AUCCGUUCUUAGGAUAUUUGAUAAGUCAUGUACGAAGAAGGAAGAACAUGAGGAUCACCCAUGUGGGACUUCGG [Eternabot (L2) Solution 12] (Eterna round: R97, puzzle: Exclusion 6) | 29 | – | 25.9 | – | –
18 | UAAAAUAGUGUGAGGAUAUGCUGGUCCUUGGAUCAGCAGAAGGCACAUGAGGAUCACCCAUGUAGUUAAUUUUA [Mat - Exclusion 4 - JL Mod - D23] (puzzle: Brourd's mod of Exclusion 4) | – | – | – | 30.8 | –

Row | Sequence | apparent KD of MS2 coat protein (input ligand: FMN 200 uM) [nM] | apparent KD of MS2 coat protein [1] [nM] | apparent KD of MS2 coat protein (input ligand: none) [nM] | apparent KD of MS2 coat protein [3] [nM] | also measured
19 | CCGCUGCAAGGAUAUACUUGCGGUGGUGCUCGAGAUCUUUUACUUGAGGAUCACCCAAGUAGAAGGUGCAAAAC [jl-ex2.4.53 ViennaUCT mod] (Eterna round: R97, puzzle: Exclusion 2) | 26.2 | – | 17.9 | – | –
20 | AAGAACUAAGGAUAUACAUGAGGAUCACCCAUGUCUUUUACAUGUUACUGGCCCGCAUGUAGAAGGUAGAAAAG [Tianrasoed] (Eterna round: R96, puzzle: Exclusion 3) | 182 | 74.4 | 85 | – | –
21 | UGCAUGCUAGGAUAUACGGGACAUUAGGGUUCGUUGUAUGGACAUGAGGAUCACCCAUGUAGAAGGAGCGUGCU [Mod5 of JL-ex2-2.15 mat747 mod] (puzzle: Exclusion 2) | – | – | – | 26 | –
22 | UUAUUAUAUGUAGGAUAUGCAUAUUGUUGUUAUGCAGAAGGACAUGAGGAUCACCCAUGUAUAUUAUUGUUAUAUAUUAUAUAU [Title] (Eterna round: R96, puzzle: Exclusion NG 1) | – | 20.1 | – | – | –
23 | CCCAACGUAACAGGAUAUGCUGUUGAGGCCGGGCGACCUACAUGAGGAUCACCCAUGUCGAAAUGGCAGAAGGGUUGCCGGGUA [Quatin] (Eterna round: R96, puzzle: Exclusion NG 2) | 315 | 61.9 | 94.4 | – | –
24 | UUAGAAUUGUUAGGAUAUUAAUUAUUUUUUAGUAUGAUCUACAUGAGGAUCACCCAUGUUAAAUAUAAGAAGGAACGUUUUAUU [JR_ExcNG2_Sub097] (Eterna round: R96, puzzle: Exclusion NG 2) | – | 40.7 | – | – | –
25 | GUUUAGUGAGGAUAUGUGGCUUCGAUCGUGAGAUCGAGGCUACAGAAGGCACAUGAGGAUCACCCAUGUUCCUC [salish99_ex4_r4_104] (Eterna round: R97, puzzle: Exclusion 4) | 516 | – | 38.9 | – | –
26 | GAUGUGGGUUUCCGGAGGAACAUGAGGAUCACCCAUGUAGAAGUUGGAGGGAUAACGCUUUUUGCUCGUUACACGUG [JR_SV3TOV1_Sub055] (puzzle: Sensor v3, turn-off variant 1) | – | – | – | 170 | apparent KD of MS2 coat protein [2]: 178 nM; apparent KD of MS2 coat protein [4]: 221 nM
27 | CCUCCGCAUUAGGAUAUCGUCCCGGAAACGGGACGAGAAGGAAUGACAUGAGGAUCACCCAUGUUAACGUGAUG [Mod of Brourd 18 - Jieux - Exclusion 6] (Eterna round: R97, puzzle: Exclusion 6) | 304 | – | 48.2 | – | –
28 | AGUUCCUUUGUGAGGAUAUCAAUGAUAUAACUGUAUGAGAAGGCACAUGAGGAUCACCCAUGUUUGUUGCUGCA [Eternabot (L1) Solution 78] (Eterna round: R97, puzzle: Brourd's mod of Exclusion 4) | 106 | – | 20.1 | – | –
29 | AGAUCUAGGACAGGAUAUAUAGAUGGCUUCAUCGAAGAUGAAGCCAUUACAUGAGGAUCACCCAUGUAGAAGGGUCCUAGAUCA [Omei Exc(NG) 2Av7] (Eterna round: R96, puzzle: Exclusion NG 2) | 11.2 | 14.3 | 16.1 | – | –
30 | CAGUACUGAGGAUAUACAUGAGGAUCACCCAUGUCCUUCAGCUAGGAAACUAGCGAAAGUAGAAGGCAGUACUG [Eli x3 4.001] (Eterna round: R97, puzzle: Exclusion 3) | 366 | – | 13.4 | – | –
31 | GUGUAGCAAGGAUAUACAUGAGGAUCACCCAUGUGAAUAAGAUAGAAUAAGAUAAAGUGUAGAAGGUGCAGUGU [Excluse me!!! 8 - Jieux - Exclusion 3] (Eterna round: R96, puzzle: Exclusion 3) | 44.9 | 31.5 | 41.6 | – | –
32 | AAUUAGUAUGUGAGGAUAUUGAUGUAAUGAUGGUUUAAGAAGGCACAUGAGGAUCACCCAUGUAGGAAAUCACG [JR_BMEx4_Sub006] (Eterna round: R97, puzzle: Brourd's mod of Exclusion 4) | 37.8 | – | 29 | – | –
33 | GAUUGACAUGAGGAUCACCCAUGUGAGGAUAUCGGCUGGACCGUGUUGGCUUGCCUUUCGAGAAGGCGCAUAGG [Exclusion 1 V48] (puzzle: Exclusion 1) | – | – | – | 32.4 | –
34 | AGCAUGCUAGGAUAUACGAAACAUUAGGGUUCUUUGUAUGAACAUGAGGAUCACCCAUGUAGAAGGAGCGUGCA [Mat - Exclusion 2 - Mod of Hyphema - D96] (puzzle: Exclusion 2) | – | – | – | 82.5 | –
35 | CUUUUGUGAGGAUAUUAGUAGUAAAUAAAUAAAAUUACUUCUGAGAAGGCACAUGAGGAUCACCCAUGUUCCUC [salish99_ex4_r3_063] (puzzle: Exclusion 4) | – | – | – | 36.9 | –
